From publication PMC10216903, “Implication of the Transmembrane Domain in the Interleukin 10 Receptor Platform Oligomerisation” (Cells, 2023)

B1: IL-10Rβ, full-length subunit of the interleukin 10 receptor (receptor, UniProt Q61190 20-349, looked up)
chain: MIPPPEKVRMNSVNFKNILQWEVPAFPKTNLTFTAQYESYRSFQDHCKRTASTQCDFSHLSKYGDYTVRVRAELADEHSEWVNVTFCPVEDTIIGPPEMQIESLAESLHLRFSAPQIENEPETWTLKNIYDSWAYRVQYWKNGTNEKFQVVSPYDSEVLRNLEPWTTYCIQVQGFLLDQNRTGEWSEPICERTGNDEITPSWIVAIILIVSVLVVFLFLLGCFVVLWLIYKKTKHTFRSGTSLPQHLKEFLGHPHHSTFLLFSFPPPEEAEVFDKLSIISEESEGSKQSPEDNCASEPPSDPGPRELESKDEAPSPPHDDPKLLTSTSEV
notes: Interleukin 10 receptor subunit beta, full length; One tag per copy: Rluc fusion as donor, eYFP fusion as acceptor; also called IL-10Rβ_FL; full-length IL-10Rβ; source: HEK293, transfected, in living cells
B2: IL-10Rα, full-length subunit of the interleukin 10 receptor (receptor, UniProt Q61727 17-575, looked up)
chain: LEFIAYGTELPSPSYVWFEARFFQHILHWKPIPNQSESTYYEVALKQYGNSTWNDIHICRKAQALSCDLTTFTLDLYHRSYGYRARVRAVDNSQYSNWTTTETRFTVDEVILTVDSVTLKAMDGIIYGTIHPPRPTITPAGDEYEQVFKDLRVYKISIRKFSELKNATKRVKQETFTLTVPIGVRKFCVKVLPRLESRINKAEWSEEQCLLITTEQYFTVTNLSILVISMLLFCGILVCLVLQWYIRHPGKLPTVLVFKKPHDFFPANPLCPETPDAIHIVDLEVFPKVSLELRDSVLHGSTDSGFGSGKPSLQTEESQFLLPGSHPQIQGTLGKEESPGLQATCGDNTDSGICLQEPGLHSSMGPAWKQQLGYTHQDQDDSDVNLVQNSPGQPKYTQDASALGHVCLLEPKAPEEKDQVMVTFQGYQKQTRWKAEAAGPAECLDEEIPLTDAFDPELGVHLQDDLAWPPPALAAGYLKQESQGMASAPPGTPSRQWNQLTEEWSLLGVVSCEDLSIESWRFAHKLDPLDCGAAPGGLLDSLGSNLVTLPLISSLQVEE
notes: Interleukin 10 receptor subunit alpha, full length; One tag per copy: Rluc fusion as donor, eYFP fusion as acceptor (plasmids pRL-CMV and pEYFP-N1); also called IL-10Rα_FL; full-length IL-10Rα; source: HEK293, transfected, in living cells

Experiments:
TM sequence of IL-10Rα = experiment: FRET or BRET; BRET saturation assay in living HEK293 cells; TM sequence fused to Rluc (plasmid constant, 0.75 ng/mL) with increasing eYFP-fused TM sequence plasmid, wild type or mutant; HBSS, coelenterazine H 5 µM, 37 °C
[1] = target: IL-10Rβ, full-length subunit of the interleukin 10 receptor (UniProt Q61190); experiment: FRET or BRET; BRET saturation assay in living HEK293 cells; full-length Rluc-tagged receptor (plasmid constant, 0.75 ng/mL) with increasing eYFP-tagged TM sequence plasmid; HBSS, coelenterazine H 5 µM, 37 °C
[2] = target: IL-10Rα, full-length subunit of the interleukin 10 receptor (UniProt Q61727); experiment: as above
TM sequence of IL-10Rβ = experiment: FRET or BRET; BRET saturation assay in living HEK293 cells; TM sequence fused to Rluc (plasmid constant, 0.75 ng/mL) with increasing eYFP-fused TM sequence plasmid, wild type or mutant; HBSS, coelenterazine H 5 µM, 37 °C
[3] = target: the molecule itself; experiment: FRET or BRET; BRET saturation assay in living HEK293 cells; full-length Rluc donor (plasmid constant, 0.75 ng/mL) with increasing full-length eYFP acceptor plasmid; HBSS, coelenterazine H 5 µM, 37 °C
[4] = target: B2; experiment: as above; settings: partners not purified
[5] = target: B1; experiment: as above; settings: partners not purified

| Molecule | BRET50 [1] | BRET50 [2] | BRET50 (TM sequence of IL-10Rβ) | BRET50 (TM sequence of IL-10Rα) | BRET50 [3] | other results |
| --- | --- | --- | --- | --- | --- | --- |
| TM sequence of IL-10Rα with leucine 248 substituted by glycine (domain or fragment) | – | – | – | – | – | decrease of BRET50 against the wild-type TM homodimer (TM sequence of IL-10Rα): 27 % decrease |
| TM sequence of IL-10Rβ (domain or fragment) | 35 mBu | 35 mBu | 78 mBu | 141 mBu | – | – |
| TM sequence of IL-10Rα (domain or fragment) | 22 mBu | 28 mBu | 109 mBu | 190 mBu | – | – |
| B1 | – | – | – | – | 152 mBu | BRET50 [4]: 86 mBu |
| B2 | – | – | – | – | 28 mBu | BRET50 [5]: 28 mBu |
